Measurements taken from the nanobody polyreactivity screen of Harvey et al. (2022).

Assay: yeast display, Sf9 membrane polyspecificity reagent, FACS + sequencing; frameworks hold sequencing errors
In short: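 Polyreactivity labels are assigned by the sorting gate from which each nanobody was recovered. The gates were low and high (top ~1%), set on anti-HA fluorescence for expression and streptavidin fluorescence for reagent binding. Before sorting, galactose-induced (36–48 hours) yeast display cells were stained for 1 hour at 4 °C with 10% biotinylated, detergent-solubilized Sf9 membrane reagent.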

Sequence	polyreactivity (PSR sort gate)
QVQLVESGGGLVQAGGSLRLICAATGITFEGYAMGWYRQAPGKERELVAAIRSSGTSTYYADSVKGRFTISRDNAKNTVYLQMNSLKPEDTAVYYCNRARSSSRYDYWGQGTQVTVSS	low polyreactivity
QVQLVESGGGLVQAGGSLRLICAAWSIFYLNAMGWYRQAPGKERELVAAISSAGSTYYADSVKGRFTISRDNAKNSVYLQMNSLKPEDTAVYYCAAYWYDSPGVTEIWYDYWGQGTQVTVSS	low polyreactivity
QVQLVESGGGLVQAGGSLRLICAAYGLTFTRNAMGWYRQARGKERELVAGITRGGSTYHADSVKGRFTISRDNAKNTVYLQMNSLKPEYTAVYYCAAGVQYARYQARYYYWGQGTQVTVSS	high polyreactivity
QVQLVESGGGLVQAGGSLRLICADSGLTFSCYTMGGYRQAPGKERELVADITVSGGTTYYADSVKGRFSISRDNAKNTVYLQMNSLKPEDTSVYYCNAQDTFTYYSSSPTYDYWGQGTQVTVSS	low polyreactivity
QVQLVESGGGLVQAGGSLRLICADSGRIVPGYAMGWYRQAPGKERELVAAISTNGGRTYYADSVKGRFTISRDNAKYTVYFQRNSLKPEDTAVYYCNAARAVYTQKRFDSWGQGTQVTVSS	high polyreactivity
QVQLVESGGGLVQAGGSLRLICAPSGIIFTSNTMGWSRQAPGNERECVASINWNGSSTYADSVKGRFTISRDIAKNTVYLQMNSLKPEDTAVFYCNADYNRNSVQFSLYDYWGQGTQVTVSS	low polyreactivity
QVQLVESGGGLVQAGGSLRLICDASGRIFATNAIGWYRQAPGKERELVATITRSAGRTYYADSVKGRFTISRDNAKNTVYLQMNSLKPEDTAVYYCAASYWDTEPGYREYDYWGQGTQVTVSS	low polyreactivity
QVQLVESGGGLVQAGGSLRLICDASGSIFEDYTMGWYRPGPGKERELVAASSRSGVRKYYADSVKGLFTISRDNAKNTVNLQMNSLKPEDTGVYYCARTRVASKGYDYWGQGTQVTVSS	high polyreactivity
QVQLVESGGGLVQAGGSLRLICDASGSTFERYALGWYRQAPGKERELVAAITWGGGSTNYADSVKGRFTISRDNEKNTVYLQMNSLNPEDTAVYYCRPLYLGGDYWGQGTQVTVSS	low polyreactivity
QVQLVESGGGLVQAGGSLRLICSASGSIFPQYAMVSYRPEPGKERALFAAISYSGGRSYYADSVKGRFTISRDIAKNTVYLQMNSLKTEYTGVYYWAARVKRGIPTYGKCYYAFGDWGQGTQVTVSS	high polyreactivity
QVQLVESGGGLVQAGGSLRLISAASGITFRYYVMGWYRHAPGKERELVASISWGGGSTYYADSVKGRFTISRDNAKNTVYLHMNSLIPEDTAVYYCAAEYWVPAVKFGYEFWGQGSQVTVSS	high polyreactivity
QVQLVESGGGLVQAGGSLRLISAASGRTFRVYAIGWYRPAPGKEREFVATISVRGGSTYYADSVKGRFTISRDNAKNTVYLQMNSLKPEDTAFYYCAADSYPYVYALYDYWGQGTQVTVSS	low polyreactivity
QVQLVESGGGLVQAGGSLRLISAASGSIFDEYAMGWYRQAPGKERELVAAISSSGTSTYYADSVKGRFTISRDNAKNTVYLQMNSLKPEYTAVYYCAARSAFLKSGYLMDYWGHGTQVTVSS	low polyreactivity
QVQLVESGGGLVQAGGSLRLMCAASGSTFRRNAMGWYRQAPGKERELVASISWRAGSTYYADSVKGRFTISRDNAKNTVYLQMNSLKQEDTAVYYCAASYYYYPSWEYEYWGQGTQVTVSS	high polyreactivity
QVQLVESGGGLVQAGGSLRLNCAASGFTFYTYAMGWYRQAPGKERELVAAITSGGGTYYADSVKGRFTISRDNAKYSVYLQMNSLKPEDTAVYYCNRASRRGYYYPYNYWGQGTQVTVSS	high polyreactivity
QVQLVESGGGLVQAGGSLRLNCAASGIIFIVYRMGWYRQAPGKERELVASINYGNGSTYYADSVKGRFTISRDNAKTTVYLQMNSLKQEDTAVYYCNADYTGTRTDSVTPEYEYWGQGTQVTVSS	low polyreactivity
QVQLVESGGGLVQAGGSLRLNCAASGITCEYYAMGWYREAPGKERDLVAAISWSGGSTYYADSVKGRFTNSRDNANNTVYLQINSLKTEDTAVYDFYAVGFTYLDLYGYWGQGTQLTVSS	high polyreactivity
QVQLVESGGGLVQAGGSLRLRCAASANTFGFYAMGWYRQAPGKERELVAGITSGDSTYYADSVKGRFTISRDNAKNTVYLQMNSLKPEDSAVYYCATAPYVSSRRYGPYEYWGQGTQVTVSS	low polyreactivity
QVQLVESGGGLVQAGGSLRLRCAASARTFGKYAMGWYRQAPGKERELVASNSLSGGSTYYADSVKGRFTISRDNAKNTVYLQMNSLKPEDTAVYSCAAKHGWYGLGYWGQGTQVTVSS	low polyreactivity
QVQLVESGGGLVQAGGSLRLRCAASGFTFHRYAMGWYRPAPGKERELVAGITRRSGSTFYADSVKGRFTISRDNAKNTVYLQMNSLKPEDTAVYYCAATVPGLHWIYDYWGQGTQVTVSS	high polyreactivity
QVQLVESGGGLVQAGGSLRLRCAASGFTFYRYAMGWYRQAPGKERELVAAISQRGGTTYYADSVKGRFTISRDNSKNTVYLQMNSLKPDDPAVYYCAARGRAYQNAYEYDYWGQGTQVTVSS	high polyreactivity
QVQLVESGGGLVQAGGSLRLRCAASGFTSYINAMGWYRQAPGKERELVAGITWSTGNTYYADSVKGRFTISRDNAKNTVYLQMNSLKPEDTAVYYCAADFYVAYVGVQPYWMDYWGQGTEVTVSS	low polyreactivity

Sequence	polyreactivity (PSR sort gate)
QVQLVESGGGLVQAGGSLRLRCAASGGNFDNYAMGWYRQAPGKERELVAAISRSGSSTFYADSVNGRFTISRDNAKNTVYLQMNSLKPEDTAVYYCSARYYYFAVYYGYIFEYDYWGQGTQLTVSS	low polyreactivity
QVQLVESGGGLVQAGGSLRLRCAASGIFAFYAMGWYRQAPGKERELVAGIDDGGSTDYADSVKGRFTISRDNAKNTVYLQMNSLKPEDTAVYYCAATERLEVWSRPYVWVTLDYRGQGTQVTVSS	low polyreactivity
QVQLVESGGGLVQAGGSLRLRCAASGITFKWYAMGWYRQATGKEREFVAIISTRAGSTYYADSVKGRFTISRDNAKNTVSLQMNSLIPEDSAVYYCNAVRSRGLHRRGDFDYWGQGTQVTVSS	high polyreactivity
QVQLVESGGGLVQAGGSLRLRCAASGITFSWYDMGWYRQAPGKERELVAAISWSGGRTYYADSVKGRFTISRDNAKNTVYLQMNSLKPEDTAVYYCNAVGVGYVGYLYGYLGQGTQVTVSS	high polyreactivity
QVQLVESGGGLVQAGGSLRLRCAASGITLLNYAMGWYRQAPWKERELVAAISWSGGRTYYADSVKGRFTMSRDNAKNTDYLHMNSLNPQDTAVYYCAAARGVNSYGYWGQGTQVTVSS	high polyreactivity
QVQLVESGGGLVQAGGSLRLRCAASGITTRTYAMGWYRQAPGKERELVAAISDSGDRTYYADSVKGRFTISRDKAKNTVYFQMNSVKPEDTAVYYCAVDGPGPRCEFWGQGTKVTVSS	low polyreactivity
QVQLVESGGGLVQAGGSLRLRCAASGLMFYDNMGCYRQAPGKERELVAAISSSGGSTSYADSVKGRFTISRDNAKNTVYLQMNSLKPEDTAVYYCAAKWSLVRDCPKYDYWGQGTQVTVSS	low polyreactivity
QVQLVESGGGLVQAGGSLRLRCAASGLTFAYNTMGWYRQAPGKEREFVASISSSGGNTYYADSVKGRFTISRDNAKNTVYLQMNSLKPEDTAVYYCAAKKKYHYVASYKRFEYWGQGTQVTVSS	low polyreactivity
QVQLVESGGGLVQAGGSLRLRCAASGLTFTYYAMGWYRQAPGKERELVAAISSGGNTNYADSVKGRFTISRDNAKNTVYLQMNSLKPEDTGVYYCAADDYYDHRVIYRSWYDYWGQGTQVTVSS	low polyreactivity
QVQLVESGGGLVQAGGSLRLRCAASGRIFGYYPMGWYRQAPGKERELDADITESGTSTYYADSVKGRFTISRDNAKNTVYLQMNSLKRVDTAVYYCAAGYWWRYALYGYWGQGTQVTVSS	low polyreactivity
QVQLVESGGGLVQAGGSLRLRCAASGRIFPLYAMGWYRQAPGKERELVATISYSGSSTYYADSVKGRFTISRDYAKNSVYLQMNSLKPEDTAVFYFNADAFGPPGVEYYYRGQGTQVTVSS	low polyreactivity
QVQLVESGGGLVQAGGSLRLRCAASGRIFRYYAMGWYRQAPGKARELVARITSSGSTYYADSVKGRFTISRDNAKNTVYLQMNSLKPEDTAVYYCAADWYRGGIVDSWGQGTQVTVSS	high polyreactivity
QVQLVESGGGLVQAGGSLRLRCAASGRIRYYGIGCYRQAPGKERELVAAITWRAGRTYYADSVKGRFTISRDNANITVYLHMNSLKPEDSAVYYCAAAIYSRSFRVDYWGQGTQVSVSS	high polyreactivity
QVQLVESGGGLVQAGGSLRLRCAASGRTFFVYTMGWYRQAPGKERELVAAITSDTSTTYADSVKGRFTISRDNAKNTVYLQMISLKPEDTAVYYCAAEGYVGYYDYDYWGQGTQVTVSS	low polyreactivity
QVQLVESGGGLVQAGGSLRLRCAASGRTFSHYAMGWYRQAAGKESELVATITRNGGITYYADSVKGRFTISRDNAKNTVYLQMNSLKPEDTAVYYCNKRWGGPIQFDYWGQGTQVTVSS	low polyreactivity
QVQLVESGGGLVQAGGSLRLRCAASGRTFWRYAMGWYRQAPGKEREFVAAISSSGGNTYYADSVKGRFTITRDNANNTVYLQTNSLKPEDTAVYYCAAYYITALGIKDYVRYYWGQGTQVTVSS	high polyreactivity
QVQLVESGGGLVQAGGSLRLRCAASGRTFYPYAMGWYRQAPGKERELVAAINWSGTSTYYADSVKGRFTISRDNAKNTVYLQMNSLKPEDTAVYYCAAKQYPVLHYSLTEADMDYWGQGTQVTVSS	low polyreactivity
QVQLVESGGGLVQAGGSLRLRCAASGRTLSSYAMGWYREAPGKERELVAAITRSGGSTYYADSVNGRFTISRDIAKNTVYLQMNSLKPEDTAVYYCAADGYRRYGSWGQGTQVTVSS	high polyreactivity
QVQLVESGGGLVQAGGSLRLRCAASGRTLYRYAMGWYRQAPGKEREFVAAISSSGGSTYYADSVKGSFTISRDNAKNTVYLQMNSLKPEDTAVYYCAARYGSSYAWSNYWGQGTQVTVSS	high polyreactivity
QVQLVESGGGLVQAGGSLRLRCAASGSIFGLYAMGWYRQAPGKERELVAAINQSGGSTTYADSVKGRCTISRDNAKTPVYLQMNSLKPEATAGYSCPADSVGDYGYQVYASWGYEDEYCGQGTQVTVSS	low polyreactivity
QVQLVESGGGLVQAGGSLRLRCAASGSIFKPYAMGWYRQAPGNERELVAAINRGGTSTYYADSVKGRFTISRDNAKNTVYFQMNSLKPEDTAVYYCAAPNRYSVPMYYWGQGTQVTVSS	low polyreactivity
